Assay results taken from patent US8846861 (dated 2014).
Non-standard residues stand in square brackets, D forms with d. No end group written: not given here. ANA = not defined here

T1: carcino-embryonic antigen (CEA) (human, UniProt P06731 35-685)
T1 construct: whole, on cells; The legends print the cell line as CCI-229; also called surface protein CEA; CEA surface antigen
T1 sequence (looked up): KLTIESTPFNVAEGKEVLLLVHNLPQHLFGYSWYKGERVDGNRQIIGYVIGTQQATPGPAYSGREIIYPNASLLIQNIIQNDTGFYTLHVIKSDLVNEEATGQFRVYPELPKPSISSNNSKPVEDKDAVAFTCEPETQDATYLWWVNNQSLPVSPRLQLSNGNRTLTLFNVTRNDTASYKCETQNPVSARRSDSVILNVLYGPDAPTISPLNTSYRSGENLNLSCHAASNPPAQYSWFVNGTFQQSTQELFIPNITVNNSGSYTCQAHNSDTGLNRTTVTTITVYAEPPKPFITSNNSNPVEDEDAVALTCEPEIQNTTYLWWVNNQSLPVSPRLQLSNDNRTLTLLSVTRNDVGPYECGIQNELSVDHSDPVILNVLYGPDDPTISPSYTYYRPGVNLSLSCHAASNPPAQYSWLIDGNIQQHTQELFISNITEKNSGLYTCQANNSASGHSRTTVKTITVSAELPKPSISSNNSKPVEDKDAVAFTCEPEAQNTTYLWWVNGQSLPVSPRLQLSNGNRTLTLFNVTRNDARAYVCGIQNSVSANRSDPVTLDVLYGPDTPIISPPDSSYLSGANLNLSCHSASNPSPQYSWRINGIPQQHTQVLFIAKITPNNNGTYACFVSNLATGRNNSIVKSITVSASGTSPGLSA


Columns and labels:
[1] = target: T1, carcino-embryonic antigen (CEA); test: flow cytometry on CCL 229 (LoVo) CEA expressing cells
Protocol: A study to look at antibodies generated in sheep to CEA and the ScFv anti CEA-CPG2 Fusion protein was carried out with analysis using flow cytometry. Measurement by Flow Cytometry of Binding Capability of scFv Anti-CEA-CPG2 Using CEA Expressing Cells. Materials: Cells Lines: CRL 1573—control cell line, CCL 229 (LoVo)—CEA expressing cell line Antibodies/Conjugates: CPG2-PE (Phycoerythrin), CPG2 100 U/ml 1:100 dilution of 100 U conjugated ScFv anti-CEA-CPG2-PE UCL, 40-50 U/ml, 0.71 mg/ml protein 2.5 µg/ml in buffer containing BSA Sheep anti-CEA-PE, CF 1110-PE; Stock at 670 µg/ml. Mouse anti human CEA UCL at 3.9 mg/ml 2.5 µg/ml in buffer containing BSA Goat anti-Mouse-PE Southern Biotech 1050-09 L2806-XH69Z kappa chain specific at 0.25 mg/ml used at 1 µg/ml 4.5 ml polystyrene tubes, PBS azide, BSA, PBS+0.5% Formaldehyde (Polysciences #18814), Propidium Iodine (Orpegen at 100 mg/ml) Centrifuge Eppendorf 5810R set to 250G, 5 mins, 4° C. Coulter XL flow cytometer Method: Cultured cells were both used at 2×10^5 cells per tube, cells in tubes were prepared to contain the following 1. Nothing added, auto fluorescence tested 2. Propidium Iodine at a final concentration of 10 µg/ml 3. CPG2-PE 4. ScFv anti CEA-CPG2-PE 5. Sheep anti CEA-PE 6. Mouse anti CEA/anti Mouse-PE Cells were spun down and 100 µl of antibody solution was added to respective tube. […]

[2] = target: ScFv anti CEA-CPG2 fusion protein (Pseudomonas, UniProt P06621 23-415); test: cell-based or functional assay

Row | Binder | binding result [1] | IC50, inhibition assay of CPG2 activity (methotrexate hydrolysis) [2] [µM]
1 | CPG2-PE (Phycoerythrin) (enzyme, Pseudomonas, UniProt P06621 23-415, looked up, conjugated to phycoerythrin (PE), PE-labelled enzyme without the scFv, used as a control in flow cytometry; also called CPG2 control; carboxypeptidase G2) ALAQKRDNVLFQAATDEQPAVIKTLEKLVNIETGTGDAEGIAAAGNFLEAELKNLGFTVTRSKSAGLVVGDNIVGKIKGRGGKNLLLMSHMDTVYLKGILAKAPFRVEGDKAYGPGIADDKGGNAVILHTLKLLKEYGVRDYGTITVLFNTDEEKGSFGSRDLIQEEAKLADYVLSFEPTSAGDEKLSLGTSGIAYVQVNITGKASHAGAAPELGVNALVEASDLVLRTMNIDDKAKNLRFNWTIAKAGNVSNIIPASATLNADVRYARNEDFDAAMKTLEERAQQKKLPEADVKVIVTRGRPAFNAGEGGKKLVDKAVAYYKEAGGTLGVEERTGGGTDAAYAALSGKPVIESLGLPGFGYHSDKAEYVDISAIPRRLYMAARLIMDLGAGK | no binding (tested: CPG2 100 U/ml 1:100 dilution) | 
2 | [ANA]-Glu (reading uncertain; also: printed as ANA-Glu) [CP006] |  | 88.5
